Test results as given in patent publication US20220324934A1 (Stanford University, published 2022).

T1: IL-2Rβ (UniProt P14784 27-240, limits assumed, biotinylated (site not stated))
T1 construct: also called CD122; IL-2Rbeta
T1 sequence (looked up): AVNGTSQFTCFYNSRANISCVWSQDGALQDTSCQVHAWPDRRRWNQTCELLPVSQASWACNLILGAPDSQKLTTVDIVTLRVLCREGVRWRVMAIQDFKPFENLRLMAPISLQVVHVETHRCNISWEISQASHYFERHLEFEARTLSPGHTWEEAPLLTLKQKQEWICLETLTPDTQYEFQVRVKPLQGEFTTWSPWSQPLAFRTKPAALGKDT


Columns and labels:
[1] = molecular target: T1, IL-2Rβ; experiment: SPR Biacore T100, kinetic fit; biotinylated IL-2Rβ on chip
Procedure: (§1) To perform the surface plasmon resonance (SPR) analysis, the test variant protein was made in Expi293 as described previously. […] Experiments were performed on a BlAcore® T100 (GE Healthcare, Piscataway, N.J.).

[2] = molecular target: T1, IL-2Rβ; experiment: SPR Biacore T100, steady-state; biotinylated IL-2Rβ on chip
Procedure: as §1

Binder | Kd [1] [nM] | koff [1] [s⁻¹] | Kd [2] [nM]
in silico designed IL-2 variant SEQ ID NO: 4, MSA fusion protein (ligand, not shown: large carriers; small tags and cut ends) APTSSSTKKTQLQLEHLLLDLQMILNMLNNYDNPKLTRLLTFKFYMPKKATSLKHLQCLEEELKPLEEALNQAGDDPKTIRDLISNINVIVLELKGSETTFMCEYADETATIIEFLNRWITFCQSIISTLT | 339 | 0.05 | 389
in silico designed IL-2 variant SEQ ID NO: 1, MSA fusion protein (ligand, not shown: large carriers; small tags and cut ends) APTSSSTKKTQLQLEHLLLDLQMILNMLNNYDNPKLTRLLTFKFYMPKKATSLKHLQCLEEELKPLEEALNAAGDDPKTIRDVVSNINVFVLELKGSETTFMCEYADETATIIEFLNRWITFCQSIISTLT | 25 | 0.0066 | 61.3
in silico designed IL-2 variant SEQ ID NO: 2, MSA fusion protein (ligand, not shown: large carriers; small tags and cut ends) APTSSSTKKTQLQLEHLLLDLQMILNMLNNYDNPKLTRLLTFKFYMPKKATELKHLQCLEEELKPLEEALNAAGDDPKTIRDLISNINVIVLELKGSETTFMCEYADETATIIEFLNRWITFCQSIISTLT | 332 | 0.055 | 411
in silico designed IL-2 variant SEQ ID NO: 3, MSA fusion protein (ligand, not shown: large carriers; small tags and cut ends) APTSSSTKKTQLQLEHLLLDLQMILNMLNNYDNPKLTRLLTFKFYMPKKATSLKHLQCLEEELKPLEEALNAAGDDPKTIRDLISNINVIVLELKGSETTFMCEYADETATIIEFLNRWITFCQSIISTLT | 282 | 0.042 | 366
in silico designed IL-2 variant SEQ ID NO: 5, MSA fusion protein (ligand, not shown: large carriers; small tags and cut ends) APTSSSTKKTQLQLEHLLLDLQMILNMLNNYDNPKLTRLLTFKFYMPKKATSLKHLQCLEEELKPLEEALNDAGDDPKTIRDLISNINVIVLELKGSETTFMCEYADETATIIEFLNRWITFCQSIISTLT | 292 | 0.047 | 362
in silico designed IL-2 variant SEQ ID NO: 6, MSA fusion protein (ligand, not shown: large carriers; small tags and cut ends) APTSSSTKKTQLQLEHLLLDLQMILNMLNNYENPKLTRMLTFKFYMPKKATSLKHLQCLEEELKPLEEALNQAGDDPKTIRDLISNINVIVLELKGSETTFMCEYADETATIIEFLNRWITFCQSIISTLT | 315 | 0.046 | 398
in silico designed IL-2 variant SEQ ID NO: 7, MSA fusion protein (ligand, not shown: large carriers; small tags and cut ends) APTSSSTKKTQLQLEHLLLDLQMILNMLNNYDNPKLTRMLTFKFYMPKKATELKHLQCLEEELKPLEEALNQADSTDETVRDLISNINVIVLELKGSETTFMCEYADETATIIEFLNRWITFCQSIISTLT | 56.7 | 0.0026 | 85.4
in silico designed IL-2 variant SEQ ID NO: 8, MSA fusion protein (ligand, not shown: large carriers; small tags and cut ends) APTSSSTKKTQLQLEHLLLDLQMILNMLNNYDNPKLTRLLTFKFYMPKKATSLKHLQCLEEELKPLEEALNAADSTDERIRDVVSNINVFVLELKGSETTFMCEYADETATIIEFLNRWITFCQSIISTLT | 5.9 | 0.0044 | 14.2
in silico designed IL-2 variant SEQ ID NO: 9, MSA fusion protein (ligand, not shown: large carriers; small tags and cut ends) APTSSSTKKTQLQLEHLLLDLQMILNMLNNYDNPKLTRLLTFKFYMPKKATSLKHLQCLEEELKPLEEALNQADSTDSRIRDLISNINVIVLELKGSETTFMCEYADETATIIEFLNRWITFCQSIISTLT | 330 | 0.12 | 378
in silico designed IL-2 variant SEQ ID NO: 10, MSA fusion protein (ligand, not shown: mouse serum albumin (MSA), fusion partner) APTSSSTKKTQLQLEHLLLDLQMILNMLNNYDNPKLTRLLTFKFYMPKKATSLKHLQCLEEELKPLEEALNQASKDQKKVRDVVSNINVFVLELKGSETTFMCEYADETATIIEFLNRWITFCQSIISTLT | 105 | 0.015 | 137
in silico designed IL-2 variant SEQ ID NO: 11, MSA fusion protein (ligand, not shown: large carriers; small tags and cut ends) APTSSSTKKTQLQLEHLLLDLQMILNMLNNYSNPKLTRLLTFKFYMPKKATSLKHLQCLEEELKPLEEALNLASDDQDKVRDVVSNINVFVLELKGSETTFMCEYADETATIIEFLNRWITFCQSIISTLT | 8.7 | 0.0036 | 22.7
in silico designed IL-2 variant SEQ ID NO: 12, MSA fusion protein (ligand, not shown: large carriers; small tags and cut ends) APTSSSTKKTQLQLEHLLLDLQMILNMLNNYDNPKLTRMLTFKFYMPKKATELKHLQCLEEELKPLEEALNHAADDKDTIRDLISNINVIVLELKGSETTFMCEYADETATIIEFLNRWITFCQSIISTLT | 51.2 | 0.023 | 67.6
in silico designed IL-2 variant SEQ ID NO: 13, MSA fusion protein (ligand, not shown: large carriers; small tags and cut ends) APTSSSTKKTQLQLEHLLLDLQMILNMLNNASNPSLTRMLTFKFYMPKKATELKHLQCLEEELKPLEEALNTAADDQDKIRDLISNINVIVLELKGSETTFMCEYADETATIIEFLNRWITFCQSIISTLT | 174 | 0.036 | 207
Super-2 (H9) IL-2 variant, expressed as MSA fusion protein (ligand, not shown: large carriers; small tags and cut ends, also called H9 super-2; MSA-H9-super-2) APTSSSTKKTQLQLEHLLLDLQMILNGINNYKNPKLTRMLTFKFYMPKKATELKHLQCLEEELKPLEEVLNLAQSKNFHFDPRDVVSNINVFVLELKGSETTFMCEYADETATIVEFLNRWITFCQSIISTLT | 2.1 | 0.0015 | 16.2
in silico designed IL-2 variant SEQ ID NO: 14, MSA fusion protein (ligand, not shown: large carriers; small tags and cut ends) APTSSSTKKTQLQLEHLLLDLQMILNMLNNYDNPKLTRMLTFKFYMPKKATELKHLQCLEEELKPLEEALNLAQSKNFHLDPRDLISNINVIVLELKGSETTFMCEYADETATIIEFLNRWITFCQSIISTLT | 171 | 0.072 | 196
in silico designed IL-2 variant SEQ ID NO: 15, MSA fusion protein (ligand, not shown: large carriers; small tags and cut ends) APTSSSTKKTQLQLEHLLLDLQMILNMLNNYDNPKLTRMLTFKFYMPKKATELKHLQCLEEELKPLEEALNQAQSKNFHLDPRDLISNINVIVLELKGSETTFMCEYADETATIIEFLNRWITFCQSIISTLT | 227 | 0.064 | 498
in silico designed IL-2 variant SEQ ID NO: 16, MSA fusion protein (ligand, not shown: large carriers; small tags and cut ends) APTSSSTKKTQLQLEHLLLDLQMILNMLNNYDNPKLTRLLTFKFYMPKKATSLKHLQCLEEELKPLEEALNQAQSKNFHLDPRDLISNINVIVLELKGSETTFMCEYADETATIIEFLNRWITFCQSIISTLT | 221 | 0.071 | 290
in silico designed IL-2 variant SEQ ID NO: 17, MSA fusion protein (ligand, not shown: large carriers; small tags and cut ends) APTSSSTKKTQLQLEHLLLDLQMILNMLNNYDNPKLTRLLTFKFYMPKKATSLKHLQCLEEELKPLEEALNLAQSKNFHLDPRDLISNINVIVLELKGSETTFMCEYADETATIIEFLNRWITFCQSIISTLT | 241 | 0.091 | 268
